Assay [1] concerns the target Soluble human LTBR (shuLTBR) (human, UniProt P36941 31-227, limits assumed). The assay can be described thus: SEC / light scattering. How it is done:
Soluble human LTBR (shuLTBR) was prepared by limited proteolytic digestion of human LTBR-Ig and purified by chromatography on protein A Sepharose and Fractogel TMAE. […] Controls with each protein were also included. The samples were analyzed by SEC using a […] column (Phenomenex) in PBS with a Waters Alliance HPLC instrument.

Assay [2] concerns the target T1, human LTβR-Ig (human, UniProt P36941 31-227).
T1 construct: Expressed and purified in house; also called hLTbR-Ig; human LTBR-Ig
Briefly: ELISA on coated LTbR-Ig. How it is done:
(§1) Human and murine ErbB2-Fc were obtained from R&D Systems. Wells of 96-well plates were coated with 2 ug/ml or 0.2 ug/ml of human or murine HER2-Fc by incubation overnight at 4-8° C. with either of these six proteins (80 ul/well of a 0.2 or 2 ug/ml solution in PBS). Wells were emptied, filled completely with a solution of PBS with 1% BSA (blocking buffer) and incubated at room temperature for 1 hour. Wells were emptied, washed twice PBS containing 0.05% Tween 20 (PBST) and filled with the samples (80 ul/well of 3× dilution series of the standard and supernatants in blocking buffer) prepared in another 96-well plate. After a 2-hour incubation at room temperature, the wells were emptied, washed three times with PBST and filled with a solution of HRP-conjugated goat pAbs anti-human kappa chain (80 ul/well of a 2000-fold dilution in blocking buffer). After 1-hour incubation, the wells were emptied and filled with a solution of HRP substrate prepared freshly. The color was left to develop for 3 minutes and was stopped by addition of an equal volume of 1N H₂SO₄. Absorbance was measured at 450 nm using a Plate Reader (SpectraMax, Molecular Devices). The data was processed and graphs were created using SoftMax Pro software.
(§2) Human and murine LTBR-Ig were expressed and purified in house.
(In general: An ELISA detects its analyte on a solid surface through an enzyme-linked reagent.)

Assay [3] deals with T1, human LTβR-Ig. The assay can be described thus: FACS (LTbR column of Table 2; format not told there).
The target in the next assay is T2, human HER2-Fc (human, UniProt P04626 23-652).
T2 construct: Bought from R&D Systems: homodimeric fusion of the HER2 extracellular domain and human IgG1 Fc; also called human ErbB2-Fc; rhErbB2-Fc; not shown: Fc fragment of human IgG1
The assay can be described thus: Octet biolayer interferometry, receptor-Fc on anti-human Fc biosensor, culture supernatant. How it is done:
(§3) Anti-human Fc-specific biosensors (Fortebio SKU 18-0001) were hydrated in OB (1×PBS supplemented with 1 mg/ml BSA, 0.05% NaN₃, and 0.02% TWEEN 20) for at least five minutes prior to assays. For each assay, the respective receptor—Fc fusion was diluted to 10 μg/ml in OB and allowed to bind to the biosensors for five minutes. The sensors were then incubated in the indicated culture supernatant for an additional five minutes, and subsequently transferred to fresh wells […].
(Biolayer interferometry detects binding as a change in optical thickness at a sensor tip.)

Assay [4] addresses T1, human LTβR-Ig. The assay is described as above. How it is done:
as §3

The target of assay [5] is T3, human HVEM-Ig (human, UniProt Q92956 39-202).
T3 construct: Expressed and purified in house; also called HVEM-Fc; Herpes virus entry mediator-Ig
T3 sequence (looked up): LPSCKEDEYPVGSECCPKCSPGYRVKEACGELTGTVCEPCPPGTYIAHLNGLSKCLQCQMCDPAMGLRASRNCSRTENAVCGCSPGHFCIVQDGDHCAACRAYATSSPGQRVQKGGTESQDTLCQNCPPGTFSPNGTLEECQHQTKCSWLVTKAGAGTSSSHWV
The description is as above. How it is done:
as §3

Assay [6] has as its target T1, human LTβR-Ig. Briefly: ELISA, huLTBR-Ig coated at 2 ug/ml, HRP goat anti-human kappa; the number is C of the printed 4-P fit (A 0.025, B 0.807, D 1.574, R^2 0.998); Fab-Light is BIIB71F10-132 by paragraph 502. As for the experimental part:
as §1, §2

The target of another assay is T4, murine LTβR-Ig (mouse, UniProt P50284 31-223).
T4 construct: Expressed and purified in house; also called mLTbR; murine LTBR-Ig
The assay can be described thus: ELISA, muLTBR-Ig coated at 2 ug/ml, HRP goat anti-human kappa; the number is C of the printed 4-P fit (A 0.093, B 0.898, D 1.613, R^2 0.995); Fab-Light is BIIB71F10-132 by paragraph 502. How it is done: as §1, §2

Assay [7] concerns the target T3, human HVEM-Ig. The assay can be described thus: ELISA, huHVEM-Ig coated at 0.2 ug/ml, HRP goat anti-human kappa; the number is C of the printed 4-P fit (A 0.08, B 1.089, D 1.303, R^2 0.999); Fab-Light is BIIB71F10-132 by paragraph 503. As for the experimental part:
as §1
Human and murine HVEM-Ig were expressed and purified in house.

The target of the next assay is T5, human LTBR-mIgG fusion.
T5 construct: kept apart from m25 (human Fc); not shown: exact end of the LTBR part
Briefly: sandwich ELISA after incubation at 200 ng/ml in human serum (cold or 37°C overnight): HER2-Fc on the plate, human LTBR-mIgG, HRP anti-mouse IgG; the signal needs both bindings at once. As for the experimental part:
An ELISA assay was developed to detect LIGHT-Ab fusions after incubation with human sera. Briefly, 200 ng/mL of LIGHT-Ab fusions were incubated overnight in human serum at 37° C. The serum was assayed in sandwich ELISA as follows. HER2-Fc was immobilized to a solid surface, and was used to capture the LIGHT-Ab fusions. The serum incubated fusion proteins were added to the solid surface. Detection was effected using a human LTBR-mIgG fusion to bind to the LIGHT moiety of the fusion. Horseradish peroxidase (HRP) labeled anti-mouse IgG was used to detect bound LIGHT-Ab fusions.

Values joined by “and” are separate entries in the source; they are usually repeats but may differ in a detail not shown here. Equal values may be shown once.

T4 sequence (P50284 31-223): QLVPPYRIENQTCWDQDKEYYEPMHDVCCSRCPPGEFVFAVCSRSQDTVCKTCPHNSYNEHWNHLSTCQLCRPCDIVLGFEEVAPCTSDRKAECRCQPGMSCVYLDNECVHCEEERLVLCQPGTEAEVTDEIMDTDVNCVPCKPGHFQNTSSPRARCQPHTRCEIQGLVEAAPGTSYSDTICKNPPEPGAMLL

B1: 71F10 Fab-hLIGHT fusion with the (G4S)4 linker (BIIB71F10-132) (other)
heavy: EVQLLESGGGLVQPGGSLRLSCAASGFTFSSYGMVWVRQAPGKGLEWVSSISSSGGLTWYADSVKGRFTISRDNSKNTLYLQMNSLRAEDTAVYYCASPPGIAVARDYWGQGTLVTVSSASTKGPSVFPLAPSSKSTSGGTAALGCLVKDYFPEPVTVSWNSGALTSGVHTFPAVLQSSGLYSLSSVVTVPSSSLGTQTYICNVNHKPSNTKVDKKVEPKSCDKGGGGSGGGGSGGGGSGGGGSNPAAHLTGANSSLTGSGGPLLWETQLGLAFLRGLSYHDGALVVTKAGYYYIYSKVQLGGVGCPLGLASTITHGLYKRTPRYPEELELLVSQQSPCGRATSSSRVWWDSSFLGGVVHLEAGEEVVVRVLDERLVRLRDGTRSYFGAFMV
light: DIQMTQSPSSLSASVGDRVTITCRASQGISNYLAWYQQKPGKVPKLLIYAASTLQSGVPSRFSGSGSGTDFTLTISSLQPEDVATYYCQKYNSALLTFGGGTKVEIKRTVAAPSVFIFPPSDEQLKSGTASVVCLLNNFYPREAKVQWKVDNALQSGNSQESVTEQDSKDSTYSLSSTLTLSKADYEKHKVYACEVTHQGLSSPVTKSFNRGEC
notes: Trimer of Fab-LIGHT units; also called 71F10 Fab-(G4S)4-LIGHT
Broadly, the EC50 is the midpoint of the concentration-response curve. In general, koff refers to a measure of how fast the partners let go of each other. Low values mean slow dissociation, high ones fast dissociation. Regarding B1, in assay [1], the “stoichiometry (shuLTBR for 1 Fab-Light trimer)” value was 2 shuLTBR per trimer and 3 shuLTBR per trimer. Further, the EC50 stood at 0.01 nM in the assay with human LTβR-Ig [2]; 0.2 nM with human LTβR-Ig [3]; 2.69 ng/mL with human LTβR-Ig [6]; 3.57 ng/mL in the assay with murine LTβR-Ig; 3.98 ng/mL in the assay with human HVEM-Ig [7]. Further, the koff in the assay with human HER2-Fc came out at 0.000117 s⁻¹; in the assay with human LTβR-Ig [4] it was 0.000197 s⁻¹; in the assay with human HVEM-Ig [5], 0.00016 s⁻¹. The binding result in the assay with human LTBR-mIgG fusion is “binds”.

These data come from patent publication US20130101549A1 (Biogen, published 2013).
